Results: patent US20250346668A1

Legend:
[1] = target: Human CD3e/g protein (human) (UniProt P07766); assay: ELISA, coated hCD3e/g
[2] = target: Cynomolgus monkey CD3e/g protein (cynomolgus monkey); assay: ELISA, coated cyno CD3e/g
[3] = target: human CD3e/d protein (Sinobiological, CAT: CT038-H2508H-B) (human) (UniProt P07766); assay: ELISA, coated hCD3e/d

EC50 [1]	OD450 nm at 0.000853 nM [1]	OD450 nm at 0.0043 nM [1]	OD450 nm at 0.02 nM [1]	OD450 nm at 0.11 nM [1]	OD450 nm at 0.53 nM [1]	OD450 nm at 2.67 nM [1]	OD450 nm at 13.3 nM [1]	OD450 nm at 66.7 nM [1]	OD450 nm at 0.000853 nM [2]	OD450 nm at 0.0043 nM [2]	OD450 nm at 0.02 nM [2]	OD450 nm at 0.11 nM [2]	OD450 nm at 0.53 nM [2]	OD450 nm at 2.67 nM [2]	OD450 nm at 13.3 nM [2]	OD450 nm at 66.7 nM [2]	Substance	also measured
4.2 nM	0.07 OD450 nm	0.07 OD450 nm	0.08 OD450 nm	0.12 OD450 nm	0.31 OD450 nm	0.59 OD450 nm	0.94 OD450 nm	1.22 OD450 nm	0.04 OD450 nm	0.04 OD450 nm	0.04 OD450 nm	0.04 OD450 nm	0.04 OD450 nm	0.04 OD450 nm	0.04 OD450 nm	0.04 OD450 nm	HIT3a (antibody)	–
2.95 nM	0.07 OD450 nm	0.08 OD450 nm	0.09 OD450 nm	0.17 OD450 nm	0.47 OD450 nm	0.8 OD450 nm	1.21 OD450 nm	1.53 OD450 nm	0.04 OD450 nm	0.04 OD450 nm	0.04 OD450 nm	0.04 OD450 nm	0.04 OD450 nm	0.03 OD450 nm	0.25 OD450 nm	0.26 OD450 nm	OKT3 (antibody)	–
0.64 nM	0.18 OD450 nm	0.1 OD450 nm	0.15 OD450 nm	0.38 OD450 nm	1.45 OD450 nm	3.1 OD450 nm	3.29 OD450 nm	3.23 OD450 nm	0.12 OD450 nm	0.2 OD450 nm	0.19 OD450 nm	0.5 OD450 nm	1.83 OD450 nm	3.41 OD450 nm	3.57 OD450 nm	3.55 OD450 nm	SP34 (antibody)	EC50 [3]: 1.51 nM; Emax (OD) [3]: 2.01 OD; OD450 nm at 0.00128 nM [3]: 0.05 OD450 nm; OD450 nm at 0.0064 nM [3]: 0.06 OD450 nm; OD450 nm at 0.032 nM [3]: 0.09 OD450 nm; OD450 nm at 0.16 nM [3]: 0.23 OD450 nm; OD450 nm at 0.8 nM [3]: 0.7 OD450 nm; OD450 nm at 4 nM [3]: 1.49 OD450 nm; OD450 nm at 20 nM [3]: 2.01 OD450 nm; OD450 nm at 100 nM [3]: 1.87 OD450 nm; EC50 [2]: 0.55 nM
–	0.177 OD450 nm	0.101 OD450 nm	0.08 OD450 nm	0.09 OD450 nm	0.14 OD450 nm	0.07 OD450 nm	0.1 OD450 nm	0.15 OD450 nm	0.0698 OD450 nm	0.101 OD450 nm	0.07 OD450 nm	0.07 OD450 nm	0.06 OD450 nm	0.07 OD450 nm	0.07 OD450 nm	0.08 OD450 nm	mouse IgG (antibody)	–
